Data reported in PMC4095729.

Biological target: biotinylated DAE10 peptide (Aβ1-10 conjugated to biotin at the carboxy-terminus)
Experiment: SPR; BIAcore; biotinylated DAE10 peptide (Aβ1-10) immobilised on streptavidin coated chips at low density (4 to 7 RU); whole antibodies injected in triplicate at 100 nM, 30 μl/minute; apparent rate constants, bivalent model, KD corrected for active concentration of antibody

Kd [nM]	koff [s⁻¹]	kon [M⁻¹ s⁻¹]	Binder
2.1	0.000399	189000	Humanized 3D6 version 1 (antibody, V domains shown) VH: EVQLLESGGGLVQPGGSLRLSCAASGFTFSNYGMSWVRQAPGKGLEWVASIRSGGGRTYYSDNVKGRFTISRDNAKNSLYLQMNSLRAEDTALYYCVRYDHYSGSSDYWGQGTLVTVSS VL: YVVMTQSPLSLPVTPGEPASISCKSSQSLLDSDGKTYLNWLLQKPGQSPQRLIYLVSKLDSGVPDRFSGSGSGTDFTLKISRVEAEDVGVYYCWQGTHFPRTFGQGTKVEIK
2.8	0.000423	150000	Bapineuzumab (humanized 3D6, version 2) (antibody, V domains shown) VH: EVQLLESGGGLVQPGGSLRLSCAASGFTFSNYGMSWVRQAPGKGLEWVASIRSGGGRTYYSDNVKGRFTISRDNSKNTLYLQMNSLRAEDTAVYYCVRYDHYSGSSDYWGQGTLVTVSS VL: DVVMTQSPLSLPVTPGEPASISCKSSQSLLDSDGKTYLNWLLQKPGQSPQRLIYLVSKLDSGVPDRFSGSGSGTDFTLKISRVEAEDVGVYYCWQGTHFPRTFGQGTKVEIK
